Data as given in the supplement of paper PMC9112550, “Optimization of the antimicrobial peptide Bac7 by deep mutational scanning” (BMC Biology, 2022).

Tested on: Escherichia coli TOP10
Test: shrunken log2 fold change of peptide-encoding DNA abundance (4.5 h post-induction vs induction); higher = less antimicrobial activity (less host growth inhibition)
Settings: time post-induction: 4.5 h; library: site-saturation at positions 5, 18, 19, 20
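Also: peptides expressed intracellularly from a pBAD plasmid library in pooled LB shake-flask culture, induced with 0.3% L-arabinose, DNA abundance read by NGS, three biological replicates, DESeq2 with apeglm shrinkage.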

| Sequence | shrunken log2 fold change |
| --- | --- |
| RRIRRRPPRLPRPRPRPYDQPRP | -0.0875 |
| RRIRHRPPRLPRPRPRPQDGPRP | -0.0342 |
| RRIRTRPPRLPRPRPRPCRVPRP | -0.346 |
| RRIRNRPPRLPRPRPRPRFRPRP | 0.0503 |
| RRIRLRPPRLPRPRPRPNANPRP | -0.101 |
| RRIRARPPRLPRPRPRPQMNPRP | -0.113 |
| RRIRPRPPRLPRPRPRPTQLPRP | 0.166 |
| RRIRKRPPRLPRPRPRPRSHPRP | 0.38 |
| RRIRARPPRLPRPRPRPQPQPRP | 0.436 |
| RRIRVRPPRLPRPRPRPRAWPRP | 0.086 |
| RRIRGRPPRLPRPRPRPHKEPRP | -0.0695 |
| RRIRMRPPRLPRPRPRPCSSPRP | -0.0756 |
| RRIRIRPPRLPRPRPRPNEVPRP | -0.346 |
| RRIRWRPPRLPRPRPRPIDCPRP | 0.0353 |
| RRIRKRPPRLPRPRPRPNAQPRP | 0.842 |
| RRIRHRPPRLPRPRPRPKVHPRP | -0.0663 |
| RRIRPRPPRLPRPRPRPDLGPRP | 0.215 |
| RRIRQRPPRLPRPRPRPRGIPRP | -0.107 |
| RRIRNRPPRLPRPRPRPVLRPRP | 0.00524 |
| RRIRLRPPRLPRPRPRPYIMPRP | -1.45 |
| RRIRHRPPRLPRPRPRPGFLPRP | -0.0294 |
| RRIRGRPPRLPRPRPRPNYGPRP | 0.07 |
| RRIRFRPPRLPRPRPRPWDGPRP | 0.00772 |
| RRIRIRPPRLPRPRPRPMSWPRP | -0.402 |
| RRIRVRPPRLPRPRPRPCIWPRP | 0.0495 |

| Sequence | shrunken log2 fold change |
| --- | --- |
| RRIRGRPPRLPRPRPRPAPPPRP | 1.07 |
| RRIRCRPPRLPRPRPRPNSEPRP | -0.398 |
| RRIRPRPPRLPRPRPRPKTCPRP | -0.124 |
| RRIRYRPPRLPRPRPRPRVCPRP | 0.0157 |
| RRIRKRPPRLPRPRPRPDLRPRP | 0.103 |
| RRIRVRPPRLPRPRPRPYHYPRP | -1.93 |
| RRIRMRPPRLPRPRPRPYHLPRP | 0.00229 |
| RRIRNRPPRLPRPRPRPRYRPRP | -0.0876 |
| RRIRGRPPRLPRPRPRPMKTPRP | 0.494 |
| RRIRERPPRLPRPRPRPDGRPRP | -0.03 |
| RRIRIRPPRLPRPRPRPTYSPRP | -0.408 |
| RRIRARPPRLPRPRPRPDFIPRP | -0.0493 |
| RRIRLRPPRLPRPRPRPRCDPRP | -0.0342 |
| RRIRYRPPRLPRPRPRPECRPRP | -0.142 |
| RRIRRRPPRLPRPRPRPTIWPRP | 0.251 |
| RRIRWRPPRLPRPRPRPKMSPRP | 0.163 |
| RRIRERPPRLPRPRPRPEDHPRP | -0.111 |
| RRIRMRPPRLPRPRPRPPMTPRP | 0.789 |
| RRIRERPPRLPRPRPRPETGPRP | -0.373 |
| RRIRHRPPRLPRPRPRPNAFPRP | -0.14 |
| RRIRTRPPRLPRPRPRPHGLPRP | -0.034 |
| RRIRWRPPRLPRPRPRPQCYPRP | -0.252 |
| RRIRLRPPRLPRPRPRPQTKPRP | -0.201 |
| RRIRWRPPRLPRPRPRPMKTPRP | -0.0156 |
| RRIRCRPPRLPRPRPRPDEVPRP | 0.00585 |

| Sequence | shrunken log2 fold change |
| --- | --- |
| RRIRDRPPRLPRPRPRPAWQPRP | 0.861 |
| RRIRPRPPRLPRPRPRPKMSPRP | -0.0151 |
| RRIRQRPPRLPRPRPRPDVVPRP | -0.01 |
| RRIRHRPPRLPRPRPRPKPQPRP | 0.269 |
| RRIRFRPPRLPRPRPRPEKAPRP | 0.0584 |
| RRIRCRPPRLPRPRPRPQRGPRP | 0.337 |
| RRIRYRPPRLPRPRPRPNPWPRP | -0.189 |
| RRIRERPPRLPRPRPRPIELPRP | -0.163 |
| RRIRIRPPRLPRPRPRPAVVPRP | -0.0892 |
| RRIRHRPPRLPRPRPRPKMMPRP | 0.00455 |
| RRIRCRPPRLPRPRPRPRKIPRP | 0.245 |
| RRIRMRPPRLPRPRPRPYQVPRP | -0.393 |
| RRIRVRPPRLPRPRPRPTVWPRP | 0.408 |
| RRIRRRPPRLPRPRPRPEKEPRP | 0.224 |
| RRIRTRPPRLPRPRPRPRPSPRP | 0.703 |
| RRIRQRPPRLPRPRPRPIDQPRP | -0.0135 |
| RRIRFRPPRLPRPRPRPIARPRP | 0.00909 |
| RRIRNRPPRLPRPRPRPMIEPRP | 0.00437 |
| RRIRKRPPRLPRPRPRPHLCPRP | 0.0127 |
| RRIRKRPPRLPRPRPRPHFQPRP | 0.0821 |
| RRIRKRPPRLPRPRPRPMASPRP | 0.55 |
| RRIRNRPPRLPRPRPRPVQYPRP | -0.000777 |
| RRIRFRPPRLPRPRPRPMFVPRP | 0.109 |
| RRIRRRPPRLPRPRPRPHDHPRP | 3.24 |
| RRIRDRPPRLPRPRPRPYYLPRP | -0.134 |

| Sequence | shrunken log2 fold change |
| --- | --- |
| RRIRYRPPRLPRPRPRPRNHPRP | -0.336 |
| RRIRARPPRLPRPRPRPRNVPRP | 0.0957 |
| RRIRGRPPRLPRPRPRPHQTPRP | 0.242 |
| RRIRQRPPRLPRPRPRPMMYPRP | 0.0473 |
| RRIRVRPPRLPRPRPRPKYHPRP | -0.373 |
| RRIRQRPPRLPRPRPRPNIKPRP | -0.558 |
| RRIRSRPPRLPRPRPRPVALPRP | -0.0772 |
| RRIRGRPPRLPRPRPRPALYPRP | 0.363 |
| RRIRARPPRLPRPRPRPIQVPRP | -0.215 |
| RRIRCRPPRLPRPRPRPGAFPRP | 0.138 |
| RRIRIRPPRLPRPRPRPMCFPRP | -0.343 |
| RRIRPRPPRLPRPRPRPWYMPRP | -0.247 |
| RRIRMRPPRLPRPRPRPGMKPRP | 0.282 |
| RRIRWRPPRLPRPRPRPIFCPRP | 0.067 |
| RRIRIRPPRLPRPRPRPCQQPRP | -0.0169 |
| RRIRLRPPRLPRPRPRPWLYPRP | -0.541 |
| RRIRDRPPRLPRPRPRPLSQPRP | 0.483 |
| RRIRPRPPRLPRPRPRPMFAPRP | -0.0605 |
| RRIRHRPPRLPRPRPRPAATPRP | 0.292 |
| RRIRFRPPRLPRPRPRPSYNPRP | -1.04 |
| RRIRQRPPRLPRPRPRPWLSPRP | 0.0988 |
| RRIRKRPPRLPRPRPRPEHVPRP | 0.0142 |
| RRIRTRPPRLPRPRPRPGVGPRP | 0.546 |
| RRIRFRPPRLPRPRPRPPWIPRP | 0.3 |
| RRIRLRPPRLPRPRPRPDNIPRP | -0.535 |

| Sequence | shrunken log2 fold change |
| --- | --- |
| RRIRRRPPRLPRPRPRPEISPRP | 0.17 |
| RRIRHRPPRLPRPRPRPAQDPRP | 0.0349 |
| RRIRYRPPRLPRPRPRPKWDPRP | -0.46 |
| RRIRNRPPRLPRPRPRPFEAPRP | 0.0104 |
| RRIRWRPPRLPRPRPRPPSRPRP | 0.314 |
| RRIRERPPRLPRPRPRPGYAPRP | -0.102 |
| RRIRSRPPRLPRPRPRPGEQPRP | 0.00836 |
| RRIRFRPPRLPRPRPRPQKVPRP | -0.194 |
| RRIRSRPPRLPRPRPRPHYEPRP | -0.573 |
| RRIRHRPPRLPRPRPRPGYFPRP | -0.0725 |
| RRIRGRPPRLPRPRPRPLCAPRP | 1.55 |
| RRIRVRPPRLPRPRPRPHENPRP | -0.38 |
| RRIRERPPRLPRPRPRPCFQPRP | -0.25 |
| RRIRLRPPRLPRPRPRPIFHPRP | -0.192 |
| RRIRGRPPRLPRPRPRPRVCPRP | 1.1 |
| RRIRRRPPRLPRPRPRPSFSPRP | -0.411 |
| RRIRFRPPRLPRPRPRPSWWPRP | 0.212 |
| RRIRWRPPRLPRPRPRPGADPRP | 0.839 |
| RRIRQRPPRLPRPRPRPKQAPRP | 0.0135 |
| RRIRCRPPRLPRPRPRPKVQPRP | 0.0235 |
| RRIRDRPPRLPRPRPRPWMQPRP | -0.0999 |
| RRIRDRPPRLPRPRPRPTKKPRP | -0.0587 |
| RRIRNRPPRLPRPRPRPQREPRP | -0.00141 |
| RRIRNRPPRLPRPRPRPCEIPRP | 0.0361 |
| RRIRERPPRLPRPRPRPKWTPRP | 0.0657 |

| Sequence | shrunken log2 fold change |
| --- | --- |
| RRIRFRPPRLPRPRPRPNTRPRP | -0.39 |
| RRIRLRPPRLPRPRPRPWARPRP | 0.482 |
| RRIRDRPPRLPRPRPRPSSLPRP | 0.15 |
| RRIRFRPPRLPRPRPRPKDCPRP | 0.104 |
| RRIRYRPPRLPRPRPRPRPYPRP | -0.259 |
| RRIRERPPRLPRPRPRPMNAPRP | -0.259 |
| RRIRMRPPRLPRPRPRPSWEPRP | 0.302 |
| RRIRVRPPRLPRPRPRPFAPPRP | 0.0601 |
| RRIRLRPPRLPRPRPRPRSEPRP | 0.235 |
| RRIRRRPPRLPRPRPRPGSGPRP | 0.407 |
| RRIRERPPRLPRPRPRPRTKPRP | 0.175 |
| RRIRSRPPRLPRPRPRPDKFPRP | -0.143 |
| RRIRSRPPRLPRPRPRPPHKPRP | 0.173 |
| RRIRRRPPRLPRPRPRPKVIPRP | -0.256 |
| RRIRSRPPRLPRPRPRPDDPPRP | 0.0348 |
| RRIRQRPPRLPRPRPRPMSHPRP | 0.00245 |
| RRIRIRPPRLPRPRPRPWWRPRP | -0.0114 |
| RRIRSRPPRLPRPRPRPTYPPRP | -0.0945 |
| RRIRRRPPRLPRPRPRPQEPPRP | 0.0839 |
| RRIRKRPPRLPRPRPRPLFQPRP | 0.181 |
| RRIRFRPPRLPRPRPRPGKCPRP | -0.421 |
| RRIRNRPPRLPRPRPRPCADPRP | 1.47 |
| RRIRRRPPRLPRPRPRPEWQPRP | 0.0758 |
| RRIRGRPPRLPRPRPRPKWFPRP | 0.0384 |
| RRIRMRPPRLPRPRPRPDMWPRP | 0.805 |
